Experimental data published in PMC8581426, “CST6 protein and peptides inhibit breast cancer bone metastasis by suppressing CTSB activity and osteoclastogenesis” (Theranostics, 2021).
Where a SMILES comes first, the peptide text is derived from it. The star is where a group is joined. Cbz = O=C(OCc1ccccc1)*; CHN2 = [N-]=[N+]=C*; tBu = CC(C)(C)*

How the values were obtained:
[1] = test system: SPHK1; assay: Intracellular SPHK1 protein level in RAW264.7 (Western blot); assay type: cell-based, mouse; details: Fig. 3B
Description: SPHK1 is cleaved by CTSB [20], and more importantly, SPHK1 can negatively regulate osteoclast differentiation by phosphorylating sphingosine into sphingosine-1-phosphate (S1P). Concordantly, we observed that Ctsb knockdown increased SPHK1 expression in primary bone marrow cells (Fig. 3A). […] Similarly, Sphk1 knockdown could also recover osteoclastogenesis of RAW264.7 that was suppressed by the treatment of CST6 recombinant (Fig. 3G, H).

[2] = test system: murine primary bone marrow cells; assay: Osteoclastogenesis of primary bone marrow cells (TRAP staining); assay type: cell-based, mouse; details: n = 3 independent experiments; for osteoclast differentiation of primary bone marrow cells: 10 μM inhibitor, Fig. 2F
Protocol: (§1) Primary bone marrow cells were harvested by flushing the cavity of tibia and femur from 5-6 week old Balb/c mice. Erythrocytes were removed by treating cell suspension with the Red Blood Cell Lysing Buffer (R7757, Sigma) for 5 min. The remaining cells were cultured in α-MEM (A1049001, Gibco) supplemented with 10% FBS and 5 ng/ml M-CSF for 12 h. Non-adherent cells were transferred into a 24-well plate and cultured in α-MEM supplemented with 10% FBS, 25 ng/ml M-CSF and 25 ng/ml RANKL for another 5 to 6 days. Cancer cell CM was mixed with α-MEM at a ratio of 1:3. CST6 protein, peptides or other drugs at indicated concentrations were administrated into the culture medium. For assessment of osteoclast differentiation, cells were stained using the Acid Phosphatase TRAP staining kit (387A, Sigma) as previously described. For RAW264.7 osteoclastogenesis assay, 700 cells per well were added into a 96-well plate and cultured in the same medium as shown above except that M-CSF was not essential. 7 ug/ml CST6 antibody (MAB1286, R&D) was used to neutralize recombinant human CST6 in RAW264.7 osteoclastogenesis assay.

[3] = test system: RAW264.7 cells; assay: RAW264.7 osteoclastogenesis assay; assay type: cell-based, mouse
Protocol: as §1

[4] = Chronic toxicity assay; assay type: in vivo, mouse; details: 10 mg/kg CA-074 for 8 consecutive days, nude mice, n = 9 per group; Fig. S6B
Protocol: […] The body weights of the mice were measured. […] Mice were sacrificed and organs were harvested for weight measurements and H&E staining to observe the pathological changes.

[5] = test system: SCP2 cells; assay: SCP2 bone metastasis in mice (intracardiac injection); assay type: in vivo, mouse
Protocol: For bone metastasis study was performed as previously described. Briefly, athymic Balb/c mice were anesthetized and 10^5 cells in 100 μL phosphate-buffered saline (PBS) were injected into the left cardiac ventricle. Peptides were administrated intravenously into the mice (n = 10 per group) at a dose of 1 mg/kg/day. The control mouse group were administered with same volume of peptide solvents. The metastatic burden was measured by bioluminescent imaging (BLI) with a NightOWL II LB983 Imaging System (Berthold). The osteolytic area was analyzed by the SkyScan 1076 In vivo X-ray Microtomograph (Bruker). The sections of hind legs of the mice was used for H&E, TRAP and immunohistochemistry staining.

[6] = test system: p38; assay: Phosphorylation of p38 in RAW264.7 (Western blot); assay type: cell-based, mouse
Protocol: To further validate the involvement of p38 signaling in CST6-suppresesed osteoclastogenesis, the p38 inhibitor SB203580 was used to treat RAW264.7 cells that were cultured in cancer cell CM.

[7] = test system: RAW264.7 cells; assay: Internalization of His-tagged CST6 protein by RAW264.7 (Western blot); assay type: cell-based, mouse; details: RAW264.7 cultured with CST6-His and various concentrations of Dynasore; Fig. 2K
Protocol: Cathepsins are lysosomal proteases and function only intracellularly in acidic environment. To verify that extracellularly derived CST6 could inhibit the intracellular CTSB activity of osteoclasts, RAW264.7 cells were cultured in the medium containing recombinant CST6 protein and the cell lysates were collected for CTSB activity analysis after phosphate-buffered saline (PBS) washing of the cells. […] Since osteoclasts are active in endocytosis, it is likely that exogenous CST6 is transported into osteoclasts via endocytosis. Indeed, we observed a co-localization of CST6 that entered the cells with the lysosome marker LAMP1 (Fig. S3B). […] Endocytosis inhibition also rescued the CST6-suppressed osteoclastogenesis of RAW264.7 cells (Fig. 2L).

[8] = Acute toxicity assay; assay type: in vivo, mouse; details: Balb/c mice, intravenous, death counted after 24 h, n = 5 per group
Protocol: For acute toxicity assays, Balb/c mice (n = 5 per group) were intravenously injected with the indicated protein or peptides at doses of 150, 200, 250, 300, 350 mg/kg. The death of mice was counted after 24 h. The median lethal dose (LD50) was calculated using the Bliss method.

[9] = test system: SCP2/SCP4 tumor cells; assay: Tumor cell growth after CST6 recombinant protein treatment; assay type: cell-based; details: 32 nM, n = 4 biological repeats, Fig. S1F
[10] = biological target: T1, CTSB (Mus musculus, UniProt P10605); assay: Intracellular CTSB activity of RAW264.7 after treatment; assay type: cell-based; details: 32 nM CST6 protein in medium, lysates after PBS washing; Fig. 2I
T1 construct: endogenous in cells; host or cells: RAW264.7
T1 sequence (P10605 80-339): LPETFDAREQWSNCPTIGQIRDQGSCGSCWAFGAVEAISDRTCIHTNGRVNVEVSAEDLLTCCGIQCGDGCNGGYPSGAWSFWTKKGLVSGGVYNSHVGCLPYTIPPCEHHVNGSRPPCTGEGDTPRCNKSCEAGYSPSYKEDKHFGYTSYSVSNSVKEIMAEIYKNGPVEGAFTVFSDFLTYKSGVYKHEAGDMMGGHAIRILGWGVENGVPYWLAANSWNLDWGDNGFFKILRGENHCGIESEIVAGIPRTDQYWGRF
Protocol: Cathepsins are lysosomal proteases and function only intracellularly in acidic environment. To verify that extracellularly derived CST6 could inhibit the intracellular CTSB activity of osteoclasts, RAW264.7 cells were cultured in the medium containing recombinant CST6 protein and the cell lysates were collected for CTSB activity analysis after phosphate-buffered saline (PBS) washing of the cells. […] Since osteoclasts are active in endocytosis, it is likely that exogenous CST6 is transported into osteoclasts via endocytosis. Indeed, we observed a co-localization of CST6 that entered the cells with the lysosome marker LAMP1 (Fig. S3B). […]
Enzymatic activities of cathepsins were analyzed with the fluorometric kits of CTSB (K147, Biovision) and CTSL (K161, Biovision) according to the manufacturer's protocol. The LGMN activity was analyzed as previously described with minor modifications of the protocol. […] After three freeze-thaw cycles at -80 °C, the cell lysate was centrifuged at 10000 g for 15 min and the supernatant was transferred into a new tube followed by protein quantification. […] After adding 1 μL substrate Z-Ala-Ala-Asn-AMC (I1865, Bachem) into each well with a final concentration of 10 μM, fluorescence measurements were performed every 5 min at 37 °C using a BioTek's Synergy™ Mx Microplate Reader with a 360 nm excitation filter and a 460 nm emission filter. […]

[11] = Pharmacokinetic assay, circulation half-life; assay type: in vivo, mouse; details: Balb/c mice, 1 mg/kg intravenous, serum 0.25-4 h, ELISA (CST6 or His-tag), one-phase decay model; n = 4
Protocol: For pharmacokinetic assays, CST6 protein or His-tagged peptides were administrated intravenously into Balb/c mice (n = 4 per group) at a dose of 1 mg/kg. Blood samples (100 μL) were collected using capillary at 0.25 h, 0.5 h, 1 h, 2 h, 3 h and 4 h, respectively. After 1 h at room temperature, the serum samples were obtained from the supernatant by centrifugation at 3000 rpm for 15 min. The CST6 content in serum was analyzed with CST6 ELISA kit (Sino Biological, 10438). The peptide content was analyzed with the His-tag ELISA kit (GenScript, L00436) according to the manufacturer's instruction. Blank serum samples from mice without protein/peptide administration were used as control. Standard curves for each protein or peptide were generated with standard samples of known concentrations to calculate the protein/peptide concentration in blood samples. The data for all peptides were fitted with the one-phase decay model using Prizm software (GraphPad Software) to calculate the half-lives.

[12] = test system: RAW264.7 or primary bone marrow-derived osteoclasts; assay: Viability of osteoclasts after CST6 recombinant protein treatment; assay type: cell-based, mouse; details: n = 4 independent experiments; Fig. S1E
[13] = Tissue distribution by CST6 immunohistochemistry; assay type: in vivo, mouse; details: week 5 of 1 mg/kg/day, Fig. S6A
Protocol: We then performed pharmacological evaluation of CST6 protein and peptides.
Supplementary Figure 6. Pharmacological evaluation of CST6 recombinant protein and CA-074.
(A) CST6 immunohistochemistry in various organs at week 5 after administration of 1 mg/kg/day CST6 peptides. The lung section from un-treated mice was used as negative control of the assay. Dotted lines denotes areas of bone metastasis. Scale bar, 150 μm. (B) The body weights of nude mice after treatment of 10 mg/kg CA-074 for 8 consecutive days (n = 9 mice per groups).
(1 picture or pasted object on this page, not shown here)

[14] = nude mice with SCP2, 1 mg/kg/day intravenous, n = 10 mice per group

Molecule: CCCNC(=O)[C@H]1O[C@@H]1C(=O)N[C@H](C(=O)N1CCC[C@H]1C(=O)OC)[C@@H](C)CC [CA-074Me]
- intracellular SPHK1 protein [1]: stabilized the intracellular SPHK1 protein in a dose-dependent manner
- osteoclast differentiation of primary bone marrow cells [2]: able to inhibit osteoclast differentiation
- osteoclast differentiation of RAW264.7 cells ([3]; treatment with Z-FY or CA074Me, n = 3 independent experiments, Fig. 2G): able to inhibit osteoclast differentiation

Molecule: CCCNC(=O)[C@H]1O[C@@H]1C(=O)N[C@H](C(=O)N1CCC[C@H]1C(=O)O)[C@@H](C)CC [CA-074]
- body weight of mice [4]: caused apparent body weight loss of the mice

Molecule: CC(C)C[C@H](NC(=O)[C@H](Cc1ccccc1)NC(=O)c1cnccn1)B(O)O [Bortezomib, reference compound]
- body weight of metastasis-bearing mice ([5]; nude mice with SCP2, 1 mg/kg/day, Fig. 5F, Fig. S5B (week 5)): but not Bortezomib, recovered the body weight of mice

Molecule: C[S+]([O-])c1ccc(-c2nc(-c3ccncc3)c(-c3ccc(F)cc3)[nH]2)cc1 (stereo not drawn) [SB203580, reference compound]
- CM-induced osteoclast maturation of RAW264.7 ([3]; RAW264.7 with RANKL and CM from CST6-knockdown or control SCP4, opposite to enhancement, Fig. 3L): showed the opposite effect
- CM-induced p38 phosphorylation ([6]; RAW264.7 with RANKL and CM from CST6-knockdown or control SCP4, opposite to enhancement, Fig. 3K): showed the opposite effect

Molecule: O=C(N/N=C/c1ccc(O)c(O)c1)c1cc2ccccc2cc1O [Dynasore]
- effect on intracellular accumulation of CST6 [7]: reduced the intracellular accumulation of CST6 in a dosage-dependent manner

Molecule: CC(C)(C)Oc1ccc(C[C@H](NC(=O)[C@H](Cc2ccccc2)NC(=O)OCc2ccccc2)C(=O)C=[N+]=[N-])cc1 [Z-FY(t-Bu)-DMK] (Cbz-Phe-Tyr(tBu)-CHN2)
- osteoclast differentiation of primary bone marrow cells [2]: but not the CTSL inhibitor Z-FY(t-Bu)-DMK, was able to inhibit osteoclast differentiation

B1: CST6: human CST6 recombinant protein expressed in E. coli, type 2 cystatin, inhibitor of cysteine proteases (protein, UniProt Q15828 29-149, looked up)
Cystatin-M: RPQERMVGELRDLSPDDPQVQKAAQAAVASYNMGSNSIYYFRDTHIIKAQSQLVAGIKYFLTMEMGSTDCRKTRVTGDHVDLTTCPLAAGAQQEKLRCDFEVLVVPWQNSSQLLKHNCVQM
modifications: His tag
- LD50 ([8]; 150-350 mg/kg, Bliss method): 322.00 ± 117.10 mg/kg
- MTD [8]: 200 mg/kg
- intracellular SPHK1 protein [1]: stabilized the intracellular SPHK1 protein in a dose-dependent manner
- osteoclastogenesis of primary bone marrow cells ([2]; RANKL-containing medium, 5 to 6 days, TRAP staining, indicated concentrations): significantly suppressed RANKL-induced differentiation of bone marrow cells into osteoclasts in a dosage-dependent manner
- expression of marker genes of osteoclastic differentiation (Caclr, Nfatc1, Acp5, Ctsk, Fos) ([3]; RAW264.7, n = 3 biological repeats, Fig. 1J): downregulated
- osteoclastic differentiation of RAW264.7 cells ([3]; cultured with RANKL, 32 nM human CST6 protein, Fig. 1I): inhibition of osteoclastic differentiation of cells
- bone metastasis (BLI) ([5]; nude mice pre-inoculated with SCP2, 1 mg/kg/day intravenous, n = 10 mice per group): efficiently alleviated bone metastasis
- osteoclastogenesis and bone destruction in metastases (TRAP+ cells, micro-CT) [5, 14]: reduced osteoclastogenesis and bone destruction
- survival of the mice [5, 14]: extended survival of the mice
- growth of tumor cells [9]: did not directly affect the growth of tumor cells
- intracellular CTSB activity of RAW264.7 [10]: inhibited the intracellular CTSB activity of RAW264.7
- p38 activation ([6]; RAW264.7, Fig. 3B): inhibited p38 activation
- Half-life [11]: 10.48 min
- viability of osteoclasts [12]: did not affect the viability of osteoclasts
- tissue distribution of administrated protein [13]: mainly distributed in liver, kidney, intestine, spleen and bone metastasis foci
